Experimental data taken from publication PMC10198558, “CryoEM structure of a post-assembly MS-ring reveals plasticity in stoichiometry and conformation” (PLOS ONE, 2023).
Values joined by “and” are separate entries in the source; they are usually repeats but may differ in a detail not shown here. Equal values may be shown once.

Target: the molecule itself
Assay: cryo-EM structure; purified MS-rings (0.5 mg/ml) in 50 mM Tris-HCl pH 7.5, 100 mM NaCl, 0.1% LDAO on graphene oxide grids, no crosslinking; subunits counted in en-face 2D class averages without rotational symmetry averaging; 3D maps with C32, C33, C34 (RBM3), C21, C22 (RBM2 inner) and C11 symmetry

B1: FliF (subunit of the flagellar MS-ring) (natural protein)
chain: MSATASTATQPKPLEWLNRLRANPRIPLIVAGSAAVAIVVAMVLWAKTPDYRTLFSNLSDQDGGAIVAQLTQMNIPYRFANGSGAIEVPADKVHELRLRLAQQGLPKGGAVGFELLDQEKFGISQFSEQVNYQRALEGELARTIETLGPVKSARVHLAMPKPSLFVREQKSPSASVTVTLEPGRALDEGQISAVVHLVSSAVAGLPPGNVTLVDQSGHLLTQSNTSGRDLNDAQLKFANDVESRIQRRIEAILSPIVGNGNVHAQVTAQLDFANKEQTEEHYSPNGDASKATLRSRQLNISEQVGAGYPGGVPGALSNQPAPPNEAPIATPPTNQQNAQNTPQTSTSTNSNSAGPRSTQRNETSNYEVDRTIRHTKMNVGDIERLSVAVVVNYKTLADGKPLPLTADQMKQIEDLTREAMGFSDKRGDTLNVVNSPFSAVDNTGGELPFWQQQSFIDQLLAAGRWLLVLVVAWILWRKAVRPQLTRRVEEAKAAQEQAQVRQETEEAVEVRLSKDEQLQQRRANQRLGAEVMSQRIREMSDNDPRVVALVIRQWMSNDHE
notes: FliF, flagellar M-ring protein, Salmonella enterica serovar typhimurium; Homo-oligomeric ring; 33 subunits is the most common stoichiometry (~80% of particles), 34 ~15%, 32 ~5%; No tag is mentioned; The built models cover only residues 228-438 (RBM3 and beta-collar, PDB 8FTF) and Gln-125 to Gly-227 (RBM2 inner, PDB 8FTE); also called post-assembly MS-ring; FliF protomer; source: E. coli …
stoichiometry N: 32 subunits and 33 subunits and 34 subunits
